Consider 1 substance from paper PMC5440810.

In test [1] the target is P18-I10/H2-D^d, BirA-tagged and biotinylated (mouse | not stated). The test can be described thus: SPR.
The target of test [2] is P18-I10/H2-D^d (peptide-loaded MHC class I with β2m) (mouse | not stated). Nature of the test: AUC.

For the substance “B4.2.3 TCR, soluble disulfide-linked αβ heterodimer (extracellular portions)”, the results for the Kd in test [1] and in test [2] were 540 nM and 230 nM, respectively. In test [2], the stoichiometry N worked out at 1.
